The source of these data is patent publication US20250250357A1 (NANJING ZAIMING PHARMACEUTICAL, published 2025).

The labels stand for the following.
B1: S009-F2.23.12 (antibody, human IgG1, kappa, V domains shown)
VH: QVQLQQPGTELVKPGASVKLSCKASGYTFTNYWMHWVKQRPGQGLEWIGNINPSNGGPYYNERFRSKATLTVDKSSSTAYMQLSSLTSEDSAVYYCARPYYGSSYGYFDYWGQGTTLTVSS
VL: DIQMTQSPSSLSASLGGKVTITCKASQDINKYIAWYQHKPGKGPRLLIHYTSELQPGIPSRFSGNGSGRDYSFSISNLEPEDIATYYCLQYANPLRTFGGGTKLEIKR
notes: Human-murine chimeric antibody: murine VH/VL on human IgG1 heavy and kappa light constant regions
B2: S009-F2.21.4 (antibody, human IgG1, kappa, V domains shown)
VH: EVQLQQSGPELVKPGASVKIPCKASGYTFTDYNMDWVKQSHGKSLEWIGDINPNNGGSIYNQRFKGKATLTVDKSSSTAYMELRSLTSEDSAVYYCARRAYYSTGYFDVWGTGTTVTVSS
VL: QIVLTQSPALMSASPGEKVTITCSASSSISYMHWFQQKPGTSPKLWIYSTSTLASGVPARFSGSGSGTSYSLTISRMEAEDTATYYCQQRSSYPPTFGGGTKLEIKR
notes: as for B1
B3: S009-F2.38.12 (antibody, human IgG1, kappa, V domains shown)
VH: QVQLQQPGTELVKPGASVKLSCKASGYTFTSYWMHWVKQRPGQGLEWIGNINPSNGGTNYNEKIKNKATLTVDKSSSTAYMQLSSLTSEDSAVYYCARWNYYGNYPFDYWGQGTTLTVSS
VL: DIVMTQSQKFMSTTVGDRVSITCKASQNVGTAVAWYQQKPGQSPKLLIYSASNRYTGVPDRFTGSGSGTDFTLTISNMQSEDLADYFCQQYSSYPLTFGAGTKLELKR
notes: as for B1
B4: S009-F2.47.1 (antibody, human IgG1, kappa, V domains shown)
VH: QVQLQQPGAELVKPGASVKLSCKASGYTFTSYWMHWVKQRPGQGLEWIGMIHPNSGSTNYNEKFKSKATLTVDKSSSTAYMQLSSLTSEDSAVYYCARPVVPYWYFDVWGTGTTVTVSS
VL: B3 VL with Y91S
notes: as for B1
B5: S009-F2.39.3 (antibody, human IgG1, kappa, V domains shown)
VH: QVQLQQPGTELVKPGASVKLSCKASGYTFTNYWMHWVKQRPGQGLEWIGNINPSSGDSYYNERFMSKAKMTVDKSSSTAYMQLSSLTSEDSAVYYCARSGGLWLAFWGPGTLVTVSA
VL: DIVMTQSPSSLAMSVGQKVTMSCKSSQTLLNSVSQNNYLAWYQQKPGQSPTLLVYFASTRESGVPDRFIGGGSGTDFTLTISSVQAEDLADYFCQQHYRTPYTFGGGTNLEIKR
notes: as for B1

Where a chain is given by its changes, count along the chain named.

The target of one experiment is T1, human MSLN-R2-his protein (human, UniProt Q13421 391-486).
T1 construct: Self-made in HEK293E cells; also called human MSLN-R2 protein; hMSLN-R2-his; not shown: His tag
T1 sequence (Q13421 other isoform, or with tags, fused parts or gaps): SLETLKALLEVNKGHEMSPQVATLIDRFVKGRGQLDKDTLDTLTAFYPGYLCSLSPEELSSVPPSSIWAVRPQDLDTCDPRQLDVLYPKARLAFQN
Nature of the experiment: ELISA on coated antigen, antibody 1 nM. (In general: An ELISA detects its analyte on a solid surface through an enzyme-linked reagent.)
B1 gave an OD450 of 0.05 OD450.

In turn, B2 came in with an OD450 of 0.05 OD450.

On to B3, for which the OD450 stood at 0.05 OD450.

B4 registered an OD450 of 0.05 OD450.

For the molecule B5, the OD450 turned out to be 0.05 OD450.

A further experiment deals with T2, human MSLN-R3-his protein (human, UniProt Q13421 487-598).
T2 construct: Self-made in HEK293E cells; also called human MSLN-R3 protein; hMSLN-R3-his; not shown: His tag
T2 sequence (Q13421 495-606): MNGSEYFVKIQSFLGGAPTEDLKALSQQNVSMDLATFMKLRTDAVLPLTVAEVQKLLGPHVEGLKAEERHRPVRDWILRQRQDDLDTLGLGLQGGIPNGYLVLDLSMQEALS
Put plainly: ELISA on coated antigen, antibody 1 nM.
Consider B1, for which the OD450 was 0.3 OD450.

In turn, B2 had an OD450 of 0.05 OD450.

For B3, the OD450 was 0.05 OD450.

Regarding B4, the OD450 was determined as 0.05 OD450.

The molecule B5 gave an OD450 of 0.25 OD450.

In another experiment the target is T1, human MSLN-R2-his protein. Put plainly: ELISA on coated antigen, antibody 10 nM.
Protocol: (§1) The plate was sealed with a plastic film and incubated at 4° C. overnight. The next day, the plate was washed twice with PBST, and a blocking buffer [PBS+2% (w/w) BSA] was added for blocking at room temperature for 2 h. The blocking buffer was discarded, and a chimeric antibody or negative control antibody serially diluted from 100 nM was added at 50 μL/well. After incubation at 37° C. for 2 h, the plate was washed 3 times with PBST. […] After incubation at 37° C. for 2 h, the plate was washed 5 times with PBST. A TMB substrate was added at 50 μL/well for incubation at room temperature for 5-10 min, and then a stop solution (1.0 N HCl) was added at 50 μL/well.
For B1, the OD450 is 0.05 OD450.

B2: the OD450 came to 0.05 OD450.

As for B3, the OD450 stood at 0.05 OD450.

The molecule B4 displayed an OD450 of 0.05 OD450.

As to B5, the OD450 was determined as 0.05 OD450.

The target of a further experiment is T3, human MSLN-R3-3 polypeptide (human).
T3 construct: also called human MSLN-R3-3 protein; hMSLN-R3-3
Nature of the experiment: ELISA on coated antigen, antibody 100 nM.
Protocol: as §1
B1 showed an OD450 of 0.06 OD450.

As for B2, the OD450 was determined as 0.05 OD450.

B3 gave an OD450 of 0.06 OD450.

As to B4, the OD450 was 0.06 OD450.

The molecule B5 returned an OD450 of 0.05 OD450.

For the next experiment, the target named is T1, human MSLN-R2-his protein. Put plainly: ELISA on coated antigen, no antibody (column none).
Protocol: as §1
As for B1, the OD450 was 0.06 OD450.

As for B2, the OD450 stood at 0.06 OD450.

On to B3, for which the OD450 turned out to be 0.06 OD450.

In the case of B4, the OD450 came out at 0.06 OD450.

The molecule B5 displayed an OD450 of 0.06 OD450.

Another experiment addresses T1, human MSLN-R2-his protein. Put plainly: ELISA on coated antigen, antibody 100 nM.
Protocol: as §1
For the molecule B1, the OD450 is 0.06 OD450.

B2 had an OD450 of 0.06 OD450.

For B3, the OD450 is 0.06 OD450.

As for B4, the OD450 worked out at 0.06 OD450.

As to B5, the OD450 is 0.06 OD450.

Another experiment deals with T3, human MSLN-R3-3 polypeptide. Nature of the experiment: ELISA on coated antigen, antibody 0.001 nM.
Protocol: as §1
As for B1, the OD450 stood at 0.05 OD450.

For B2, the OD450 came to 0.05 OD450.

Consider B3, for which the OD450 is 0.05 OD450.

B4: the OD450 amounted to 0.06 OD450.

In turn, B5 came in with an OD450 of 0.05 OD450.

For another experiment the target is unchanged. Nature of the experiment: ELISA on coated antigen, antibody 0.0001 nM.
Protocol: as §1
B1 showed an OD450 of 0.05 OD450.

B2 gave an OD450 of 0.05 OD450.

Turning to B3, the OD450 was found to be 0.05 OD450.

As for B4, the OD450 was 0.05 OD450.

The molecule B5 gave an OD450 of 0.05 OD450.

For the next experiment, the target named is T2, human MSLN-R3-his protein. Nature of the experiment: ELISA on coated antigen, no antibody (column none).
Protocol: as §1
Regarding B1, the OD450 was 0.06 OD450.

B2 came in with an OD450 of 0.06 OD450.

Regarding B3, the OD450 came out at 0.05 OD450.

Turning to B4, the OD450 turned out to be 0.05 OD450.

B5 registered an OD450 of 0.05 OD450.

In the next experiment the target is T2, human MSLN-R3-his protein. Put plainly: ELISA on coated antigen, antibody 0.0001 nM.
Protocol: as §1
In turn, B1 had an OD450 of 0.05 OD450.

For B2, the OD450 was determined as 0.05 OD450.

As to B3, the OD450 is 0.05 OD450.

The molecule B4 showed an OD450 of 0.05 OD450.

Regarding B5, the OD450 came out at 0.05 OD450.

For a further experiment, the target named is T3, human MSLN-R3-3 polypeptide. Nature of the experiment: ELISA on coated antigen, antibody 0.1 nM.
Protocol: as §1
B1 came in with an OD450 of 0.05 OD450.

Consider B2, for which the OD450 came out at 0.05 OD450.

Molecule B3 returned an OD450 of 0.05 OD450.

As to B4, the OD450 came to 0.06 OD450.

With B5, the OD450 is 0.05 OD450.

Another experiment deals with T1, human MSLN-R2-his protein. Put plainly: ELISA on coated antigen, antibody 0.01 nM.
Protocol: as §1
Take B1: the OD450 came out at 0.05 OD450.

The molecule B2 displayed an OD450 of 0.05 OD450.

Molecule B3 displayed an OD450 of 0.05 OD450.

The molecule B4 came in with an OD450 of 0.05 OD450.

B5 came in with an OD450 of 0.05 OD450.

The target in another experiment is T1, human MSLN-R2-his protein. Nature of the experiment: ELISA on coated antigen, antibody 0.1 nM.
Protocol: as §1
B1 displayed an OD450 of 0.05 OD450.

B2 came in with an OD450 of 0.05 OD450.

In turn, B3 registered an OD450 of 0.05 OD450.

With B4, the OD450 stood at 0.05 OD450.

In the case of B5, the OD450 amounted to 0.05 OD450.

The target of a further experiment is T1, human MSLN-R2-his protein. Put plainly: ELISA on coated antigen, antibody 0.001 nM.
Protocol: as §1
Take B1: the OD450 came out at 0.05 OD450.

As to B2, the OD450 was 0.05 OD450.

For B3, the OD450 turned out to be 0.05 OD450.

As to B4, the OD450 turned out to be 0.05 OD450.

Molecule B5 returned an OD450 of 0.05 OD450.

The target of a further experiment is T2, human MSLN-R3-his protein. Put plainly: ELISA on coated antigen, antibody 0.01 nM.
Protocol: as §1
The molecule B1 came in with an OD450 of 0.05 OD450.

Take B2: the OD450 was 0.05 OD450.

B3 had an OD450 of 0.04 OD450.

Molecule B4 returned an OD450 of 0.05 OD450.

Turning to B5, the OD450 is 0.05 OD450.

Another experiment concerns the target T3, human MSLN-R3-3 polypeptide. Nature of the experiment: ELISA on coated antigen, no antibody (column none).
Protocol: as §1
Molecule B1 yielded an OD450 of 0.05 OD450.

On to B2, for which the OD450 turned out to be 0.05 OD450.

The molecule B3 gave an OD450 of 0.05 OD450.

On to B4, for which the OD450 was 0.06 OD450.

Molecule B5 returned an OD450 of 0.05 OD450.

In a further experiment the target is T2, human MSLN-R3-his protein. Put plainly: ELISA on coated antigen, antibody 100 nM.
Protocol: as §1
In the case of B1, the OD450 came to 2.08 OD450.

Take B2: the OD450 is 0.06 OD450.

As to B3, the OD450 is 0.06 OD450.

For B4, the OD450 came to 0.06 OD450.

As for B5, the OD450 was 1.84 OD450.

The target of a further experiment is T2, human MSLN-R3-his protein. Put plainly: ELISA on coated antigen, antibody 10 nM.
Protocol: as §1
Molecule B1 displayed an OD450 of 1.4 OD450.

For B2, the OD450 was 0.05 OD450.

B3 gave an OD450 of 0.05 OD450.

B4 yielded an OD450 of 0.05 OD450.

Turning to B5, the OD450 turned out to be 0.98 OD450.

The next experiment has as its target T3, human MSLN-R3-3 polypeptide. Put plainly: ELISA on coated antigen, antibody 0.01 nM.
Protocol: as §1
The molecule B1 showed an OD450 of 0.05 OD450.

Regarding B2, the OD450 worked out at 0.05 OD450.

In turn, B3 showed an OD450 of 0.05 OD450.

Take B4: the OD450 worked out at 0.05 OD450.

In turn, B5 displayed an OD450 of 0.05 OD450.

A further experiment has the same target. Nature of the experiment: ELISA on coated antigen, antibody 10 nM.
Protocol: as §1
For B1, the OD450 is 0.05 OD450.

Regarding B2, the OD450 amounted to 0.05 OD450.

Take B3: the OD450 came to 0.05 OD450.

B4 yielded an OD450 of 0.06 OD450.

Molecule B5 came in with an OD450 of 0.05 OD450.

A further experiment concerns the target T2, human MSLN-R3-his protein. Put plainly: ELISA on coated antigen, antibody 0.001 nM.
Protocol: as §1
In turn, B1 yielded an OD450 of 0.05 OD450.

B2 yielded an OD450 of 0.05 OD450.

The molecule B3 returned an OD450 of 0.05 OD450.

Molecule B4 returned an OD450 of 0.05 OD450.

As to B5, the OD450 stood at 0.05 OD450.

In the next experiment the target is T3, human MSLN-R3-3 polypeptide. Nature of the experiment: ELISA on coated antigen, antibody 1 nM.
Protocol: as §1
B1 returned an OD450 of 0.05 OD450.

In the case of B2, the OD450 turned out to be 0.05 OD450.

Regarding B3, the OD450 was found to be 0.05 OD450.

B4 showed an OD450 of 0.05 OD450.

B5 yielded an OD450 of 0.05 OD450.

The next experiment has as its target T1, human MSLN-R2-his protein. Nature of the experiment: ELISA on coated antigen, antibody 0.0001 nM.
Protocol: as §1
With B1, the OD450 stood at 0.05 OD450.

B2: the OD450 worked out at 0.05 OD450.

With B3, the OD450 came out at 0.05 OD450.

For the molecule B4, the OD450 worked out at 0.05 OD450.

Take B5: the OD450 is 0.05 OD450.

In another experiment the target is T2, human MSLN-R3-his protein. Put plainly: ELISA on coated antigen, antibody 0.1 nM.
Protocol: as §1
Consider B1, for which the OD450 was found to be 0.09 OD450.

The molecule B2 registered an OD450 of 0.05 OD450.

In the case of B3, the OD450 turned out to be 0.05 OD450.

On to B4, for which the OD450 is 0.05 OD450.

As to B5, the OD450 worked out at 0.07 OD450.
